Laboratory results reported in patent US20050261472A1, “Binding moieties for fibrin” (Dyax Corp., priority 1999, published 2005).
Bridge positions count the residues as written; N and C are the ends. Ends that are not written are not given here.

T1: fibrinogen (Homo sapiens, UniProt P02671+P02675+P02679)
T1 sequence (P02671 20-644 isoform P02671-2 limits assumed): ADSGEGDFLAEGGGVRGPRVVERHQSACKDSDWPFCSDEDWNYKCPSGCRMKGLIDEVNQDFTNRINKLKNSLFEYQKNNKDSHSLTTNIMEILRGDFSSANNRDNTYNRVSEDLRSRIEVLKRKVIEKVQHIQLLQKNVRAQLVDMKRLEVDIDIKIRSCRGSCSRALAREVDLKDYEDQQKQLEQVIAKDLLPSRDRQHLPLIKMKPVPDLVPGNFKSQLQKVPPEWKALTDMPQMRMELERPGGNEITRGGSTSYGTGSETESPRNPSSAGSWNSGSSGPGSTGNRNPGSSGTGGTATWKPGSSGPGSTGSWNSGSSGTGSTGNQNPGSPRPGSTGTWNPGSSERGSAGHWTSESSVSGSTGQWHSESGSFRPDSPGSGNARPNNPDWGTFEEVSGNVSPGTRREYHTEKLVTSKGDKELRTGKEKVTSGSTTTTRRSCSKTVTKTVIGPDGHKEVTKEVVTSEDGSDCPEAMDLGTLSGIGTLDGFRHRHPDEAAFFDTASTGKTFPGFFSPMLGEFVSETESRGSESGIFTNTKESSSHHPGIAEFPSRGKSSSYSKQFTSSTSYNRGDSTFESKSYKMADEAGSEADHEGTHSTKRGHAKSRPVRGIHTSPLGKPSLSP
T1 sequence (P02675 31-491): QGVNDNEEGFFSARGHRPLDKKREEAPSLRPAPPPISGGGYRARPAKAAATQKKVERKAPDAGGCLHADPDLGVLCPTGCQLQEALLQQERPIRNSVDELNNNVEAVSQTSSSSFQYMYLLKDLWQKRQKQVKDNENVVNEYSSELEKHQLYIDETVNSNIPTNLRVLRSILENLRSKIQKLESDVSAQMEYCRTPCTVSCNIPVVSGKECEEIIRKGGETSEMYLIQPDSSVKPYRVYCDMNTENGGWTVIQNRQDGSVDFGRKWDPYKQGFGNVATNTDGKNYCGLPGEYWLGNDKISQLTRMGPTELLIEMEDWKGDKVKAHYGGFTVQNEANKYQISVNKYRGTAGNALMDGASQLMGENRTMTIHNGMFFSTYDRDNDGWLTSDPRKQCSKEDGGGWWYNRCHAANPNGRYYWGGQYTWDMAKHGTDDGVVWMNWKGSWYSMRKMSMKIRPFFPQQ
T1 sequence (P02679 27-437 isoform P02679-2 limits assumed): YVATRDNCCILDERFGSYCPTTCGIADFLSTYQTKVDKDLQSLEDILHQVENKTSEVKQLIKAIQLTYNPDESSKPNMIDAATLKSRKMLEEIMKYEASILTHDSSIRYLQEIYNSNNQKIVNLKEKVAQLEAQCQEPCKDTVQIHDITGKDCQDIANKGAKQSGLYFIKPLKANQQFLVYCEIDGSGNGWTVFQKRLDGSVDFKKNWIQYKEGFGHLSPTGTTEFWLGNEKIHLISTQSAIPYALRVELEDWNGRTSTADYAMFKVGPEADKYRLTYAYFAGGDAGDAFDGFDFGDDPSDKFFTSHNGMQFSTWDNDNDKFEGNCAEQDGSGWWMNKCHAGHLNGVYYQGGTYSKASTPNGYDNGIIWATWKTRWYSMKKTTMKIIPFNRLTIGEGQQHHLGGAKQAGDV

T2: dried fibrin (UniProt P02671 36-629; P02675 45-491; P02679 27-437, limits assumed)
T2 construct: Polymerised fibrin made in 96-well plates from fibrinogen and thrombin, dried at 37 C and rehydrated; also called (rehydrated) dried fibrin; fibrin target
T2 sequence (looked up) 1: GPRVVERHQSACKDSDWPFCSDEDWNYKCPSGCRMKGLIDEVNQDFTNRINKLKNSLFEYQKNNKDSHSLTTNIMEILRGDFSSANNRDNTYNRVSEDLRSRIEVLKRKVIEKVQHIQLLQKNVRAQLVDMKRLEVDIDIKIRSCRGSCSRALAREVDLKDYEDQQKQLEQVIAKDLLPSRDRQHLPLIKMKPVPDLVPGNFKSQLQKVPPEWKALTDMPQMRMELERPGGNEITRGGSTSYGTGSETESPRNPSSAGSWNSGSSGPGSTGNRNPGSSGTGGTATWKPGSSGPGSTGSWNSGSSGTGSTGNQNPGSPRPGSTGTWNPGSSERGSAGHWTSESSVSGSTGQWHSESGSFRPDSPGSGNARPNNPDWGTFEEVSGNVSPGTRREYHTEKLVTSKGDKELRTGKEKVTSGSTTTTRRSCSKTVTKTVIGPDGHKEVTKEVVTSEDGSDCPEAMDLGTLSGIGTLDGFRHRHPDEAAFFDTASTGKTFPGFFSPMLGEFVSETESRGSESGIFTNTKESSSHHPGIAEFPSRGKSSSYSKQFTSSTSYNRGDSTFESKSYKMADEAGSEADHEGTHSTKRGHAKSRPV
T2 sequence (looked up) 2: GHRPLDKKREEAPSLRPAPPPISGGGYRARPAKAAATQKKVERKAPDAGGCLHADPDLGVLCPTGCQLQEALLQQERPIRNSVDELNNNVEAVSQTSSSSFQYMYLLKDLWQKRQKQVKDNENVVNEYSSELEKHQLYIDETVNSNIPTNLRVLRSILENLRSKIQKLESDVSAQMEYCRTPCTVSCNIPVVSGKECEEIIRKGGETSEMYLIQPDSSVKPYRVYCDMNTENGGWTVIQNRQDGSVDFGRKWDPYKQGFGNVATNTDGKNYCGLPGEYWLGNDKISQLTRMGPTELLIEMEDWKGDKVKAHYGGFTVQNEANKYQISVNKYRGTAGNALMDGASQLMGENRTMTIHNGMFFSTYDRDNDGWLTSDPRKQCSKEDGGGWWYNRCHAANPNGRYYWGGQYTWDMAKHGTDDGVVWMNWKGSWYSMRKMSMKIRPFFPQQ
T2 sequence (looked up) 3: T1 sequence (P02679 27-437 isoform P02679-2 limits assumed)

T3: fibrinogen (UniProt P02671 20-629; P02675 31-491; P02679 27-437, limits assumed)
T3 sequence (looked up) 1: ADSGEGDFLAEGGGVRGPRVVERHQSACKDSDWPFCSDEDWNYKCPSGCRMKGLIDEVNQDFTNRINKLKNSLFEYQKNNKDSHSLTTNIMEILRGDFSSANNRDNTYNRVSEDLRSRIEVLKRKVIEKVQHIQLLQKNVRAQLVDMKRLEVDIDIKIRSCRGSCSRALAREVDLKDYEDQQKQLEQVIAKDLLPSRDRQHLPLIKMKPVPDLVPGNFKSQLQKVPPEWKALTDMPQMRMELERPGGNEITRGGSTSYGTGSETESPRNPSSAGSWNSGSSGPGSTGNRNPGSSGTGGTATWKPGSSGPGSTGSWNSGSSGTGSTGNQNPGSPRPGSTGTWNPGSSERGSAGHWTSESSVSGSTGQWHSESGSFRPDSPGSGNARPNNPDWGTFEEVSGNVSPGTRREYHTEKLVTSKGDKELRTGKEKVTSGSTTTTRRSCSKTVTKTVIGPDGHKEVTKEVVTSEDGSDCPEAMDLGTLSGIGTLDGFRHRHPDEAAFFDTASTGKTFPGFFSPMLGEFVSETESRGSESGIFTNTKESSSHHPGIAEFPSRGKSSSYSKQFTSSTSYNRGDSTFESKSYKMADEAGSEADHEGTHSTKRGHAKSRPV
T3 sequence (looked up) 2: T1 sequence (P02675 31-491)
T3 sequence (looked up) 3: T1 sequence (P02679 27-437 isoform P02679-2 limits assumed)

T4: fibrin of an in vitro clot formed from human blood plasma (human, UniProt P02671 36-629; P02675 45-491; P02679 27-437)
T4 construct: Plasma of a human donor clotted with CaCl2 in the presence of the peptide; also called in vitro blood clot
T4 sequence (looked up) 1: T2 sequence (looked up) 1
T4 sequence (looked up) 2: T2 sequence (looked up) 2
T4 sequence (looked up) 3: T1 sequence (P02679 27-437 isoform P02679-2 limits assumed)

B1: Gd-DTPA-Pep1 (peptide)
peptide: LPCDYYGTCLD
modifications: disulfide 3-9 (inferred); not fully specified (N-terminus); also: Gd(III)-DTPA chelate, from DTPA-Asp(beta-COOH)-OtBu

Key:
[1] = biological target: T5, DD(E) (Homo sapiens, UniProt P02671+P02675+P02679); test: dissociation constant against fibrin-derived polypeptide DD(E); type: binding; settings: read-out: Kd DD(E)
T5 construct: host or cells: purchased fibrinogen clotted with thrombin, digested with plasmin, then purified by ammonium sulfate cuts and Sephacryl S200

[2] = biological target: T1, fibrinogen; test: binding affinity by equilibrium dialysis; settings: 190 μM vs. 2.7 μM
Experimental: (§1) A solution of fibrinogen (10 mg/ml) was mixed with the MR labeled peptide of Example 11 designated Gd-DTPA-Pep1, at concentrations of 10, 50 and 100 μM. The fibrinogen/peptide solution was placed on one side of a dialysis membrane in an equilibrium dialysis apparatus. The solution was allowed to equilibrate with an equal volume of buffer on the opposite side of the membrane.

[3] = biological target: T2, dried fibrin; test: dried fibrin plate, bound vs free peptide
[4] = biological target: T3, fibrinogen; test: equilibrium dialysis, fibrinogen 10 mg/ml, peptide by I.C.P.
Experimental: as §1

[5] = biological target: T2, dried fibrin; test: ratio of Kd for fibrinogen (equilibrium dialysis) to Kd for fibrin
Experimental: as §1

[6] = biological target: T4, fibrin of an in vitro clot formed from …; test: human plasma clotted in the presence of peptide, free peptide by Gd I.C.P., bound vs free fit
Experimental: Freshly drawn whole blood was obtained from a human donor and centrifuged at 4000×g for 15 minutes to remove the hematocrit. The blood plasma (supernatant) was removed and dispensed into ten 1.5 ml tubes, 500 μL/tube. The MR labeled peptide of Example 11, GdDTPA-Pep1, was added to each tube at increasing concentrations (2, 5, 8, 10, 15, 20, 30, 50, 75, 100 μM) along with PBS buffer (50 mM sodium phosphate, 150 mM NaCl, pH 7.4) to bring the total volume to 550 μL. The sample was equilibrated at 37° C. A small aliquot (50 μL) was removed for quantitating the total peptide added (measured by Gd I.C.P. analysis after dilution into 0.1 M HNO₃). Clotting was initiated by the addition of 5 μL 2 M CaCl₂, and the samples are incubated at 37° C. for 1 hour. The tubes were spun down briefly (5 sec) and the clot was removed with a pipet tip. The remaining supernatant (˜200 μL) was diluted in HNO₃ and the peptide concentration (equal to the concentration of unbound or free peptide) was measured by Gd I.C.P. analysis. The difference between the total and free peptide concentrations yields the concentration of bound peptide.

Row | Molecule | Kd [1] [nM] | specificity for fibrin over fibrinogen [2] | Kd [3] [µM] | Kd [4] [µM] | specificity for fibrin over fibrinogen (fold) [5] [fold] | Kd [6] [µM]
1 | CC(C)C[C@H](NC(=O)[C@@H]1CSSC[C@H](NC(=O)[C@@H]2CCCN2C(=O)[C@H](CC(C)C)NC(=O)C[C@@H](C(=O)O)N(CCN(CC(=O)O)CC(=O)O)CCN(CC(=O)O)CC(=O)O)C(=O)N[C@@H](CC(=O)O)C(=O)N[C@@H](Cc2ccc(O)cc2)C(=O)N[C@@H](Cc2ccc(O)cc2)C(=O)NCC(=O)N[C@@H]([C@@H](C)O)C(=O)N1)C(=O)N[C@@H](CC(=O)O)C(N)=O [Gd-DTPA-Pep1] | 2900 | roughly 70 fold | – | – | – | –
2 | B1 | – | – | 7.4 | 190 | ~70 | ~20
